The results in this text go back to the supplement of paper PMC10567573.

B1: MLL5 (parent)
chain: DCMGIDRQHIPDTYLCERCQPRNL
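Also: lentivirally expressed fusions sorted by FACS into six bins by GFP to DsRed ratio, PSI derived from sequencing read proportions per bin multiplied by bin number.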

The variants in the series derive from B1. Briefly: protein stability index of a GFP-peptide fusion (GPS, HEK-293T) (PSI 1-6); higher = more stable. Conditions: c terminus: a fixed tail appended.
DCMGIDRQHIWDTYLCERCQPRNL [P11W]: the protein stability index came to 1.7.
Regarding DCMGIDRQHIRDTYLCERCQPRNL [P11R], the protein stability index was found to be 3.15.
The result for DCMGIDRQHIGDTYLCERCQPRNL [P11G] reads 2.96; that for DCMGIDRQHIIDTYLCERCQPRNL [P11I], 2.36; that for DCMGIDRQHIADTYLCERCQPRNL [P11A], 2.6.
The result for DCMGIDRQHIHDTYLCERCQPRNL [P11H] reads 3.71; that for DCMGIDRQHILDTYLCERCQPRNL [P11L], 2.23.
Take DCMGIDRQHIPDTYLTERCQPRNL [C16T]: the protein stability index was determined as 3.41.
DCMGIDRQHIPDTYLWERCQPRNL [C16W]: the protein stability index stood at 2.9.
Take DCMGIDRQHIPDTYLKERCQPRNL [C16K]: the protein stability index amounted to 3.41.
As to DCMGIDRQHIPDTYLNERCQPRNL [C16N], the protein stability index worked out at 3.7.
Consider DCMGIDRQHIPDTYLFERCQPRNL [C16F], for which the protein stability index was 3.13.
In the case of DCMGIDRQHIPDTYLIERCQPRNL [C16I], the protein stability index is 3.44.
DCMGIDRQHIPDTYLVERCQPRNL [C16V]: the protein stability index was found to be 3.21.
Take DCMGIDRQHIPDTYLYERCQPRNL [C16Y]: the protein stability index is 2.88.
With DCMGIDRQHIPDTYLPERCQPRNL [C16P], the protein stability index was 3.73.
Regarding DCMGIDRQHIPDTYLAERCQPRNL [C16A], the protein stability index stood at 3.56.
Consider DCMNIDRQHIPDTYLCERCQPRNL [G4N], for which the protein stability index was determined as 2.19.
In the case of DCMEIDRQHIPDTYLCERCQPRNL [G4E] it was 3.23.
Consider DCMCIDRQHIPDTYLCERCQPRNL [G4C], for which the protein stability index came to 3.73.
For DCMVIDRQHIPDTYLCERCQPRNL [G4V], the protein stability index worked out at 2.38.
In the case of DCMIIDRQHIPDTYLCERCQPRNL [G4I], the protein stability index is 2.41.
Consider DCMHIDRQHIPDTYLCERCQPRNL [G4H], for which the protein stability index came to 3.98.
For the variant DCMDIDRQHIPDTYLCERCQPRNL [G4D], the protein stability index is 3.11.
On to DCMWIDRQHIPDTYLCERCQPRNL [G4W], for which the protein stability index stood at 1.78.
With DCMGIDRQHIPDTYLCCRCQPRNL [E17C], the protein stability index is 2.32.
Take DCMGIDRQHIPDTYLCRRCQPRNL [E17R]: the protein stability index is 2.47.
For the variant DCMGIDRQHIPDTYLCYRCQPRNL [E17Y], the protein stability index came to 2.5.
The result for DCMGIDRQHIPDTYLCQRCQPRNL [E17Q] reads 3.04; that for DCMGIDRQHIPDTYLCIRCQPRNL [E17I], 1.94.
In the case of DCMGIDRQHIPDTYLCTRCQPRNL [E17T], the protein stability index was determined as 3.07.
As for DCMGIDRQHIPDTYLCWRCQPRNL [E17W], the protein stability index came to 2.02.
The result for DCMGIDRQHIPDTYLCARCQPRNL [E17A] reads 2.89.
With DCMGIDRQHIPDTYPCERCQPRNL [L15P], the protein stability index is 3.15.
The result for DCMGIDRQHIPDTYTCERCQPRNL [L15T] reads 3.73; that for DCMGIDRQHIPDTYQCERCQPRNL [L15Q], 2.99; that for DCMGIDRQHIPDTYHCERCQPRNL [L15H], 3.32.
For the variant DCMGIDRQHIPDTYECERCQPRNL [L15E], the protein stability index is 4.66.
DCMGIDRQHIPDTYACERCQPRNL [L15A]: the protein stability index turned out to be 3.61.
Consider DCMGIDRQHIPDTYLCEDCQPRNL [R18D], for which the protein stability index is 3.81.
As to DCMGIDRQHIPDTYLCEGCQPRNL [R18G], the protein stability index is 3.6.
As for DCMGIDRQHIPDTYLCEWCQPRNL [R18W], the protein stability index stood at 2.25.
In the case of DCMGIDRQHIPDTYLCEECQPRNL [R18E], the protein stability index stood at 3.15.
Turning to DCMGIDRQHIPDTYLCEVCQPRNL [R18V], the protein stability index is 2.19.
For DCMGIDRQHIPDTYLCETCQPRNL [R18T], the protein stability index worked out at 3.15.
With DCMGIDRQHIPDTYLCECCQPRNL [R18C], the protein stability index was 2.89.
On to DCMGIDRQHIPDTYLCESCQPRNL [R18S], for which the protein stability index worked out at 3.12.
DCMGIDRQHIPDTYLCENCQPRNL [R18N]: the protein stability index was 3.58.
In the case of DCMGIDRQHIPDTYLCERCQFRNL [P21F], the protein stability index is 2.49.
DCMGIDRQHIPDTYLCERCQSRNL [P21S]: the protein stability index was found to be 2.93.
Turning to DCMGIDRQHIPDTYLCERCQNRNL [P21N], the protein stability index turned out to be 3.21.
In the case of DCMGIDRQHIPDTYLCERCQLRNL [P21L] it was 3.61; in that of DCMGIDRQHIPDTYLCERCQYRNL [P21Y], 2.88; in that of DCMGIDRQHIPDTYLCERCQARNL [P21A], 3.58.
Regarding DCMGIDRQHIPDTYLCERCQVRNL [P21V], the protein stability index came out at 2.48.
Take DCMGIDRQHIPDTYLCERCQERNL [P21E]: the protein stability index is 4.
On to DCMGIDRQHIPDTYLCERCQWRNL [P21W], for which the protein stability index amounted to 1.7.
The result for DCMGIGRQHIPDTYLCERCQPRNL [D6G] reads 2.78.
Take DCMGINRQHIPDTYLCERCQPRNL [D6N]: the protein stability index stood at 2.4.
The result for DCMGIMRQHIPDTYLCERCQPRNL [D6M] reads 1.88; that for DCMGILRQHIPDTYLCERCQPRNL [D6L], 2.31.
DCMGIWRQHIPDTYLCERCQPRNL [D6W]: the protein stability index was 1.62.
Take DCMGIPRQHIPDTYLCERCQPRNL [D6P]: the protein stability index was 2.61.
For DCMGIQRQHIPDTYLCERCQPRNL [D6Q], the protein stability index was 3.21.
For the variant DCMGISRQHIPDTYLCERCQPRNL [D6S], the protein stability index stood at 2.99.
DCMGICRQHIPDTYLCERCQPRNL [D6C]: the protein stability index was determined as 3.29.
In the case of DCMGIERQHIPDTYLCERCQPRNL [D6E] it was 2.78; in that of DCMGIDRQHWPDTYLCERCQPRNL [I10W], 2.37.
In the case of DCMGIDRQHSPDTYLCERCQPRNL [I10S] it was 3.14; in that of DCMGIDRQHEPDTYLCERCQPRNL [I10E], 3.72.
Consider DCMGIDRQHPPDTYLCERCQPRNL [I10P], for which the protein stability index was 2.97.
As to DCMGIDRQHVPDTYLCERCQPRNL [I10V], the protein stability index was 2.45.
With DCMGIDRQHDPDTYLCERCQPRNL [I10D], the protein stability index is 3.56.
Consider DCMGIDRQHMPDTYLCERCQPRNL [I10M], for which the protein stability index was 3.9.
The result for DCMGIDRQHCPDTYLCERCQPRNL [I10C] reads 3.62; that for DCMGIDRQHYPDTYLCERCQPRNL [I10Y], 3.49.
In the case of DCMGIDRQAIPDTYLCERCQPRNL [H9A] it was 2.63.
For the variant DCMGIDRQDIPDTYLCERCQPRNL [H9D], the protein stability index was found to be 2.56.
With DCMGIDRQYIPDTYLCERCQPRNL [H9Y], the protein stability index turned out to be 2.01.
In the case of DCMGIDRQKIPDTYLCERCQPRNL [H9K] it was 3.58.
With DCMGIDRQFIPDTYLCERCQPRNL [H9F], the protein stability index was 2.04.
For the variant DCMGIDRQQIPDTYLCERCQPRNL [H9Q], the protein stability index came out at 3.04.
Regarding DCMGIDRQCIPDTYLCERCQPRNL [H9C], the protein stability index was determined as 3.29.
With DCMGIDRQHIPDYYLCERCQPRNL [T13Y], the protein stability index came out at 2.15.
The result for DCMGIDRQHIPDKYLCERCQPRNL [T13K] reads 3.24; that for DCMGIDRQHIPDEYLCERCQPRNL [T13E], 3.71.
With DCMGIDRQHIPDSYLCERCQPRNL [T13S], the protein stability index turned out to be 3.66.
On to DCMGIDRQHIPDGYLCERCQPRNL [T13G], for which the protein stability index was found to be 3.31.
DCMGIDRQHIPDHYLCERCQPRNL [T13H]: the protein stability index is 3.36.
The result for DCMGIDRQHIPDAYLCERCQPRNL [T13A] reads 3.59.
The result for DCMGIDRQHIPDTYLCERFQPRNL [C19F] reads 3.14; that for DCMGIDRQHIPDTYLCERTQPRNL [C19T], 4.09.
DCMGIDRQHIPDTYLCERHQPRNL [C19H]: the protein stability index was determined as 3.7.
Take DCMGIDRQHIPDTYLCERVQPRNL [C19V]: the protein stability index is 2.65.
